Patent US20110171215A1 (ISIS INNOVATION, published 2011)

Legend:
[1] = molecular target: T1, human PD-1 extracellular region / murine CD28 chimera, mutant L16R, on HEK-293T cells (human; mouse, UniProt Q15116 25-170; P31041 151-218, L16R); assay: flow cytometry on transfected HEK-293T cells
T1 construct: extracellular domain;domain: transmembrane and intracellular regions; Single-residue 'drastic' mutant of m4; constructs elsewhere are counted on the mature polypeptide
Procedure: (§1) Constructs encoding the human extracellular region of PD-1 with the transmembrane and intracellular regions of murine CD28 were cloned into the bi-cistronic mammalian expression vector pGFP2-n2 from BioSignal Packard Ltd, which also encodes GFP. Mutant constructs varying by one amino acid were prepared using the “drastic” mutagenesis approach (Davis el al. Proc Natl Acad Sci USA. 95, 5490-4 (1998)). Plasmids (2 μg/well) were transfected into HEK-293T cells in 6 well plates using Genejuice transfection reagent (Novagen; 6 μl/well). Mock and no-transfection controls were included with each experiment. Cells were harvested at 18-24 hours and stained with anti-PD1 antibodies or isotype controls at 10 μg/ml in PBS-azide for 1 h at 4° C. Cells were washed with PBS-Azide, pelleted at 1500 rpm/5 min and primary antibodies were labelled with Alexa647-conjugated donkey anti-mouse IgG (5 μg/ml) in PBS-Azide for 30 min at 4° C. Cells were washed as above and resuspended in 200 μl PBS-Azide before being analysed at the flow cytometer. Propidium iodide (5 μg/ml) was added immediately prior to analysis to identify dead cells. GFP-positive (transfected) viable cells were gated and analysed for binding of anti-PD1 antibodies. […]

[2] = molecular target: T2, human PD-1 extracellular region / murine CD28 chimera, mutant R118D, on HEK-293T cells (human; mouse, UniProt Q15116 25-170; P31041 151-218, R118D); assay: flow cytometry on transfected HEK-293T cells
T2 construct: extracellular domain;domain: transmembrane and intracellular regions; Single-residue 'drastic' mutant of m4
T2 sequence (Q15116 other isoform, or with tags, fused parts or gaps R118D | R118D R118D): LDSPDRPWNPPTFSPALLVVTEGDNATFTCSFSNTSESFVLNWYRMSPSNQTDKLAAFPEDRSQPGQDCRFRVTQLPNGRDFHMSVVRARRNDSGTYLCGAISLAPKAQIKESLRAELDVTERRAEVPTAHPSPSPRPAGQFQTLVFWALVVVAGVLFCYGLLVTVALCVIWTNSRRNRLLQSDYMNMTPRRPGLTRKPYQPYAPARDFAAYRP
Procedure: as §1

[3] = molecular target: T3, human PD-1 extracellular region with the transmembrane and intracellular regions of murine CD28, expressed on … (human; mouse, UniProt Q15116 25-170; P31041 151-218, limits assumed); assay: flow cytometry on transfected HEK 293T cells
T3 construct: extracellular domain;domain: transmembrane and intracellular regions; also called human PD-1 transfectants
T3 sequence (Q15116 other isoform, or with tags, fused parts or gaps limits assumed, change not shown): as the sequence (Q15116 other isoform, or with tags, fused parts or gaps R118D | R118D R118D) above, with D119R counted along it
Procedure: as §1

T1 sequence (Q15116 other isoform, or with tags, fused parts or gaps L16R | L16R L16R): as the sequence (Q15116 other isoform, or with tags, fused parts or gaps R118D | R118D R118D) above, with L17R, D119R counted along it

Row | binding result [1] | binding result [2] | binding result [3] | Binder
1 | no binding (tested: 10 µg/ml) | no binding (tested: 10 µg/ml) | – | Clone 19 anti-PD-1 antibody (antibody, IgG1, V domains shown, The printed VH ends at ...TV) VH: QVQLQQSGAELVKPGASVKMSCKAFGYTFTTYPIEWMKQNHGKSLEWIGNFHPYNDDTKYNEKFKGKAKLTVEKSSTTVYLELSRLTSDDSAVYYCARENYGSHGGFVYWGQGTLVTV VL: ENVLTQSPAIMSASPGEKVTMTCRASSSVISSYLHWYQQKSGASPKLWIYSTSNLASGVPDRFSGSGSGTSYSLTISSVEAEDAATYYCQQYNGYPLTFGAGTKLEIK
2 | – | – | binds | Clone 2 anti-PD-1 antibody (antibody, V domains shown, The printed VH ends at ...TV) VH: QVQLQQPGAELVKPGASVKLSCKASGYTFTTYYLYWVRQRPGQGLEWIGGINPSNGGTNFNEKFKSKATLTVDKSSSTAYMQLNSLTSEDSAVYYCTRRDYRYDRGFDYWGQGTSVTV VL: DIVLTQSPASLAVSLGQRATISCRASKSVSTSGFNYIHWYQQKPGQPPKLLIYLASNLESGVPARFSGSGSGTDFTLNIHPVEDEDAATYYCQHSRELPLTFGAGTKLEIK
